Data taken from US20110002929A1 (Ablynx, published 2011).

T1: CD40 ligand (UniProt P29965 113-261, limits assumed)
T1 sequence (looked up): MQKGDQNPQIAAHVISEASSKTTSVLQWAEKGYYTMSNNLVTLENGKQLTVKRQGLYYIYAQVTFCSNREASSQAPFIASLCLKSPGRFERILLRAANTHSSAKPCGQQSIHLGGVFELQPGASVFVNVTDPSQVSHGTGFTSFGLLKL

T2: human RANK-L (human, UniProt O14788 140-317, limits assumed)
T2 construct: Soluble protein, used coated, biotinylated or labelled in ELISA, AlphaScreen, FMAT and Biacore; also called hRANK-L; soluble human RANK-L
T2 sequence (looked up): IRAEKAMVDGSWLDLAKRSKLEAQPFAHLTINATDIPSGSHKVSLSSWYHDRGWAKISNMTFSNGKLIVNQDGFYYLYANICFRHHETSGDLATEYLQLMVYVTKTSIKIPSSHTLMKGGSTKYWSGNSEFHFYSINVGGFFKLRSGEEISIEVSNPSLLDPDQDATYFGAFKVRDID

T3: human RANK-L, full length, membrane-bound, expressed on HEK293T cells (human, UniProt O14788 1-317)
T3 construct: whole, on cells; also called hRANK-L
T3 sequence (looked up): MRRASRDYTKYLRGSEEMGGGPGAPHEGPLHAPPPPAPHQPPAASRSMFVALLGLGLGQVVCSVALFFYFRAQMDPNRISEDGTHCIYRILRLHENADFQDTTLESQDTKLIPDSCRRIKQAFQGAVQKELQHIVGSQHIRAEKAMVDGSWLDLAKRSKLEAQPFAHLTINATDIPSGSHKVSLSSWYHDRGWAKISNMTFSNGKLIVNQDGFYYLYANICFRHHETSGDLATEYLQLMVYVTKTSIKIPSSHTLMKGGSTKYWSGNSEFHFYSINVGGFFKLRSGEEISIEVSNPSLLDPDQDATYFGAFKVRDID

T4: cynomolgus RANK-L, full length, membrane-bound, expressed on HEK293T cells (cynomolgus monkey, UniProt A0A7N9DBU4 1-317)
T4 construct: whole, on cells; also called cyno RANK-L
T4 sequence: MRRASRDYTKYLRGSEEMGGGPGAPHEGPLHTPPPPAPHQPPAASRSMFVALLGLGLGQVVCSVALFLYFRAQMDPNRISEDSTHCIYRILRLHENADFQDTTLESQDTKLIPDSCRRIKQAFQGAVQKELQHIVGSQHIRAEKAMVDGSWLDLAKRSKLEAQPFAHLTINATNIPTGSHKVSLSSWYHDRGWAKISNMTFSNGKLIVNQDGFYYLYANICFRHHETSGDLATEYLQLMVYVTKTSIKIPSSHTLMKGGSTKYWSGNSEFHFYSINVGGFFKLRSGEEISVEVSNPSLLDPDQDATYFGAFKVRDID


Assays:
CD40 ligand = target: T1, CD40 ligand; assay: competition ELISA on RANK-L-coated plates, 1 nM Nanobody preincubated with the ligand
TRAIL = target: T5, TRAIL (UniProt P50591 114-281, limits assumed); assay: as above
T5 construct: also called tumor necrosis factor-related apoptosis inducing ligand
T5 sequence (P50591 114-281 limits assumed): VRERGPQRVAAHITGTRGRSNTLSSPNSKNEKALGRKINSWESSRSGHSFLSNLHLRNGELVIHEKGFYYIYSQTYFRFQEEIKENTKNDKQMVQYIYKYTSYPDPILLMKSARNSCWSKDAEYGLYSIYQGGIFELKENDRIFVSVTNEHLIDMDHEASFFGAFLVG

TNFα = target: T6, TNFα (UniProt P01375 77-233); assay: as above
T6 construct: also called TNF-alpha
T6 sequence (P01375 77-233 limits assumed): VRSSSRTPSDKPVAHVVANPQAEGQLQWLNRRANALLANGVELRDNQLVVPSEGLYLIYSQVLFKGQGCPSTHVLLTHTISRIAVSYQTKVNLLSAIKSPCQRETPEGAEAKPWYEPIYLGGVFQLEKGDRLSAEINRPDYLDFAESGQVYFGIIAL

human RANK-L [1] = target: T2, human RANK-L; assay: FMAT, ALEXA647-hRANK-L / RANK on HEK293T cells
Method: HEK293T cells were transiently transfected with the plasmid expressing full length RANK using Fugene6 as described in example 3. After 24 hours aliquots of 60 μl (7.5×10³ cells) were plated into FMAT system 384-well plates (PE Biosystems, CA, US) and allowed to adhere for 24 h. After overnight adherence, culture supernatant was removed by gently tapping the plate. […] The plates were scanned after 10 hours of incubation. Cell surface fluorescence was measured by 8200 Cellular Detection System (Applied Biosystems, Foster City, Calif., US) which is a fluorescence macro-confocal, biological binding event analyzer that enables mix-and-read assays with live cells.

human RANK-L [2] = target: T2, human RANK-L; assay: AlphaScreen, biotin-hRANK-L / RANK-huFc beads
human RANK-L [3] = target: T2, human RANK-L; assay: FMAT, ALEXA647-hRANK-L / RANK on HEK293T cells; remark: listed apart in the source
human RANK-L [4] = target: T2, human RANK-L; assay: AlphaScreen, biotin-hRANK-L / RANK-huFc beads; remark: listed apart in the source
human RANK-L [5] = target: T2, human RANK-L; assay: SPR Biacore 3000, hRANK-L on CM5, 100 nM Nanobody
Method: Binding kinetics of the humanized versions of Nanobodu RANL13 were also analysed by Surface Plasmon Resonance (Biacore 3000). […] Nanobody binding was assessed at one concentration (100 nM). Each Nanobody was injected for 4 minutes at a flow rate of 45 μl/min to allow binding to chip-bound antigen. Next, binding buffer without Nanobody was sent over the chip at the same flow rate to allow spontaneous dissociation of bound Nanobody.

[6] = target: T3, human RANK-L, full length, …; assay: FACS, HEK293T with human RANK-L, 3.2 pM Nanobody
Method: (§1) Human embryonic kidney cells (HEK293T) were grown in Dulbecco's modified Eagles's medium supplemented with 10% fetal bovine serum (FBS), […] L-glutamine, 0.4 mM sodium pyruvate. […] After 48 hours, transfected cells were subjected to FACS analysis. […] Then cells were washed three times with FACS buffer. Bound Nanobodies were detected by subsequent incubations of a primary mouse anti Myc antibody (30 min at 4° C. (2 μg/ml)) and a second incubation with goat anti mouse-Phycoerythrin (PE) (Jackson Laboratories) for another 30 min at 4° C. Finally, after washing, the cells were resuspended in PBS+10% FBS+TO-PRO®-3 (5 nM) (Molecular Probes®, Invitrogen, Merelbeke, Belgium) and cell surface fluorescence expressed as mean PE fluorescence, was measured using flow cytometry.

[7] = target: T4, cynomolgus RANK-L, full length, …; assay: FACS, HEK293T with cynomolgus RANK-L, 2000 pM Nanobody
Method: as §1

IC50 (human RANK-L [1]) [nM] | IC50 (human RANK-L [2]) [nM] | IC50 (human RANK-L [3]) [nM] | IC50 (human RANK-L [4]) [nM] | koff (human RANK-L [5]) [s⁻¹] | PE mean fluorescence [6] | PE mean fluorescence [7] | Binder | binding result (CD40 ligand) | binding result (TRAIL) | binding result (TNFα)
0.552 | 0.187 | 0.253 | 0.292 | 5.6e-05 | 105 | 12000 | RANKL18 (VHH, not shown: small tags and cut ends) VHH: EVQLVESGGGLVQAGGSLRLSCAASGRTFSRSAMGWFRQAPGKEREFVGFITGSGGTTYYGESVKGRFTISRDNAQNPVYLQMNSLKPEDTAVYYCGVYRRTYISSTYSESSEYDYWGQGTQVTVSS | no binding (tested: approximately 100 nM) | no binding (tested: approximately 100 nM) | no binding (tested: approximately 100 nM)
0.429 | 0.147 | 0.264 | 0.174 | 0.00025 | 220 | 12400 | RANKL13 (VHH, not shown: small tags and cut ends) VHH: EVQLVESGGGLVQAGGSLRLSCAASGRTFRSYPMGWFRQAPGKEREFVASITGSGGSTYYADSVKGRFTISRDNAKNTVYLQMNSLRPEDTAVYSCAAYIRPDTYLSRDYRKYDYWGQGTQVTVSS | no binding (tested: approximately 100 nM) | no binding (tested: approximately 100 nM) | no binding (tested: approximately 100 nM)
